Where two headings read alike, the source gives them in different places.
Tests used:
rat proMMP9 = rat proMMP9 (rat, UniProt P50282 20-708); assay: cell-based or functional assay
[1] = target: Cynomologus monkey (cyno) proMMP9 (Cynomologus monkey); assay: cell-based or functional assay
[2] = target: T1, recombinant human proMMP9 (full length, latent form) (human, UniProt P14780 20-707); assay: cell-based or functional assay
[3] = target: T2, human MMP9 (i.e. activated MMP9), catalytically active caspase-cleaved recombinant MMP9 (human, UniProt P14780 107-707); assay: cell-based or functional assay
T2 sequence (P14780 107-707): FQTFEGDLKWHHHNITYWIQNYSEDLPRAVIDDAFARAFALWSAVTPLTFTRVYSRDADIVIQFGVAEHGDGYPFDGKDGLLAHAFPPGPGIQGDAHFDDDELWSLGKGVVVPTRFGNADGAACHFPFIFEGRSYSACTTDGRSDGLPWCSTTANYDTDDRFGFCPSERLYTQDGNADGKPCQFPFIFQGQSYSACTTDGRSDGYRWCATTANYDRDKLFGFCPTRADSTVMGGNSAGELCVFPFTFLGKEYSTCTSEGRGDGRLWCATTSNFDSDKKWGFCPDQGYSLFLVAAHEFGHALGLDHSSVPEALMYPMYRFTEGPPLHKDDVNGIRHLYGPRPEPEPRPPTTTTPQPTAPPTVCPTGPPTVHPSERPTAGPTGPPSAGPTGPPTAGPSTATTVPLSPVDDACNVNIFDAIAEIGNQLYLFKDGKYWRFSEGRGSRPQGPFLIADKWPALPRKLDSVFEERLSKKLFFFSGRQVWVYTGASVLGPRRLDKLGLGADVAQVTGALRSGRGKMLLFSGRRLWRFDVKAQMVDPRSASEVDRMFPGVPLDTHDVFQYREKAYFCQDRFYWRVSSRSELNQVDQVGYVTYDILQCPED

mouse proMMP9 = mouse proMMP9 (mouse, UniProt P41245 20-730); assay: cell-based or functional assay
Chain of mouse proMMP9 (P41245 20-730): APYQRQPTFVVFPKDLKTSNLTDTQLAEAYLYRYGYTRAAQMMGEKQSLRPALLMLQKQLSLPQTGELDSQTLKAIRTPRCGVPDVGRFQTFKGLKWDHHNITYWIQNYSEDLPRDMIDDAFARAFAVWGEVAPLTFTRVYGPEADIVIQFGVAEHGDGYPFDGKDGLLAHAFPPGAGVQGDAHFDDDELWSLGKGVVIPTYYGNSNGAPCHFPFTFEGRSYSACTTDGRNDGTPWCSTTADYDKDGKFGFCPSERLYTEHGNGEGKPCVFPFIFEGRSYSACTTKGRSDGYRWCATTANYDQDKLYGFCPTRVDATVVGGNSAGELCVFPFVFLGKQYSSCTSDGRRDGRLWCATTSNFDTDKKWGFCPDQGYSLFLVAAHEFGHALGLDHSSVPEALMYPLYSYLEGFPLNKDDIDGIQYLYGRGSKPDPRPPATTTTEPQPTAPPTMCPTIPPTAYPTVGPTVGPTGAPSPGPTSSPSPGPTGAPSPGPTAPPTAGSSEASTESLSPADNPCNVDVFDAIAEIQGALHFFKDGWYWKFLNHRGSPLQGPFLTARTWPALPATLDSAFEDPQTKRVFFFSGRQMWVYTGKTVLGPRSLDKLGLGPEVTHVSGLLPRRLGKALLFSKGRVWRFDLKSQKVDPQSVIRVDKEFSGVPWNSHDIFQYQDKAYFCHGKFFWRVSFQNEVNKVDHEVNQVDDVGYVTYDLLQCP

mouse active MMP9 = mouse active MMP9 (mouse, UniProt P41245 108-730, limits assumed); assay: cell-based or functional assay
Chain of mouse active MMP9 (P41245 108-730 limits assumed): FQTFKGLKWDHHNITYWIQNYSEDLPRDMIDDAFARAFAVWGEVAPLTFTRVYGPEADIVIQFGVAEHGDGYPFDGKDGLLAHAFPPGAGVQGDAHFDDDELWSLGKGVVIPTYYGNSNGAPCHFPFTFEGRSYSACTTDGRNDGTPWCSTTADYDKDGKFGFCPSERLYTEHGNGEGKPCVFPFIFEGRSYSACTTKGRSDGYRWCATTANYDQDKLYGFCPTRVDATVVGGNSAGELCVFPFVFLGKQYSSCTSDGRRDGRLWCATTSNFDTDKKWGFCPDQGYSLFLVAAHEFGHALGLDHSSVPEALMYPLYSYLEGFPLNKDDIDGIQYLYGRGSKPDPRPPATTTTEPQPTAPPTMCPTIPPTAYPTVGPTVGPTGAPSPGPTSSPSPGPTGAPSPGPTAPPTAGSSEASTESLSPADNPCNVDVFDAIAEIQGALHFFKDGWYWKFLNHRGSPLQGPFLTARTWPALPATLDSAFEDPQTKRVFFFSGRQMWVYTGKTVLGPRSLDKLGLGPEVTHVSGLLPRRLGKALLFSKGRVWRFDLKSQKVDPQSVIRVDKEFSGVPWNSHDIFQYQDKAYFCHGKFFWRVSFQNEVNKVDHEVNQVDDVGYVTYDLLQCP

[4] = target: MMP3-activated recombinant human MMP9 (human, UniProt P14780 107-707); assay: SPR (BIAcore), antibody captured by anti-human Fc, antigen titrated 4.7-150 nM
Chain of MMP3-activated recombinant human MMP9 (P14780 107-707): as the sequence (P14780 107-707) above
Protocol: (§1) In a second step, pro-MMP9 or MMP3-activated MMP9 were titrated from 4.7 to 150 nM in 2-fold dilutions.

[5] = target: T1, recombinant human proMMP9 (full length, …); assay: SPR (BIAcore), antibody captured by anti-human Fc, antigen titrated 4.7-150 nM; SPR (BIAcore), antibody captured by anti-human Fc, pro-MMP9 up to 150 nM; lower bound estimated from <1% binding
Protocol: as §1

[6] = target: T3, neutrophil-derived human dimeric MMP9 (human, UniProt P14780 20-707); assay: cell-based or functional assay
T3 sequence (P14780 20-707): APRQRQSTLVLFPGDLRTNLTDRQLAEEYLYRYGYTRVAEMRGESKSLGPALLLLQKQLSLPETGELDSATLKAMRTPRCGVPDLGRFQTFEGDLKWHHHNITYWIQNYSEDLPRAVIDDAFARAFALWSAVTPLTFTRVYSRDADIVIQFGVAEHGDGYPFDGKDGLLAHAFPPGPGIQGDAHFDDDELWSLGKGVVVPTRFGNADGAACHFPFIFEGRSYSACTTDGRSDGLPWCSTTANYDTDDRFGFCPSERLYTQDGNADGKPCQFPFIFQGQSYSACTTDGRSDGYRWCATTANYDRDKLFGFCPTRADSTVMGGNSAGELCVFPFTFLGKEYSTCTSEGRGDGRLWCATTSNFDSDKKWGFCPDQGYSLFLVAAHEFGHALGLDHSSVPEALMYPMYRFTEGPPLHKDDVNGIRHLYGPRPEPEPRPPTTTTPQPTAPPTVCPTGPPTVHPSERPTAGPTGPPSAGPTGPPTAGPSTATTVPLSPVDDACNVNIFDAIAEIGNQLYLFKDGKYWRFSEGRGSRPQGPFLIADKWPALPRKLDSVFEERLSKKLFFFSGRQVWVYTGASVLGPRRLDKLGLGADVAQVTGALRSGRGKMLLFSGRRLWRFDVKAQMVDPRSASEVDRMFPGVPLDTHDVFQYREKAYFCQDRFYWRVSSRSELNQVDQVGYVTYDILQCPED

[7] = target: T2, human MMP9 (i.e. activated MMP9), …; assay: cell-based or functional assay; remark: listed apart in the source
[8] = target: T4, neutrophil-derived human NGAL/MMP9 complex (human, UniProt P80188 21-198); assay: cell-based or functional assay
T4 sequence (chain, as listed by the source limits assumed, chain 1 of 2): as the sequence (P14780 20-707) above
T4 sequence (P80188 21-198 limits assumed, chain 2 of 2): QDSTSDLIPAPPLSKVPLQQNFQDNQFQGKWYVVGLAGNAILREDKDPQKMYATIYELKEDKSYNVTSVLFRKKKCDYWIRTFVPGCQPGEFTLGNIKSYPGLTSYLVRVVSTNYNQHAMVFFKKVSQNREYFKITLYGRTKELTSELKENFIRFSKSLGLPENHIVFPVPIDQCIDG

[9] = target: T5, neutrophil-derived human monomeric MMP9 (human, UniProt P14780 20-707); assay: cell-based or functional assay
T5 sequence (P14780 20-707): as the sequence (P14780 20-707) above

[10] = target: T3, neutrophil-derived human dimeric MMP9; assay: cell-based or functional assay; remark: listed apart in the source
[11] = target: T5, neutrophil-derived human monomeric MMP9; assay: cell-based or functional assay; remark: listed apart in the source
[12] = target: T3, neutrophil-derived human dimeric MMP9; assay: cell-based or functional assay; remark: listed apart in the source
[13] = target: T4, neutrophil-derived human NGAL/MMP9 …; assay: cell-based or functional assay; remark: listed apart in the source
[14] = target: T5, neutrophil-derived human monomeric MMP9; assay: cell-based or functional assay; remark: listed apart in the source

Chain of rat proMMP9 (P50282 20-708): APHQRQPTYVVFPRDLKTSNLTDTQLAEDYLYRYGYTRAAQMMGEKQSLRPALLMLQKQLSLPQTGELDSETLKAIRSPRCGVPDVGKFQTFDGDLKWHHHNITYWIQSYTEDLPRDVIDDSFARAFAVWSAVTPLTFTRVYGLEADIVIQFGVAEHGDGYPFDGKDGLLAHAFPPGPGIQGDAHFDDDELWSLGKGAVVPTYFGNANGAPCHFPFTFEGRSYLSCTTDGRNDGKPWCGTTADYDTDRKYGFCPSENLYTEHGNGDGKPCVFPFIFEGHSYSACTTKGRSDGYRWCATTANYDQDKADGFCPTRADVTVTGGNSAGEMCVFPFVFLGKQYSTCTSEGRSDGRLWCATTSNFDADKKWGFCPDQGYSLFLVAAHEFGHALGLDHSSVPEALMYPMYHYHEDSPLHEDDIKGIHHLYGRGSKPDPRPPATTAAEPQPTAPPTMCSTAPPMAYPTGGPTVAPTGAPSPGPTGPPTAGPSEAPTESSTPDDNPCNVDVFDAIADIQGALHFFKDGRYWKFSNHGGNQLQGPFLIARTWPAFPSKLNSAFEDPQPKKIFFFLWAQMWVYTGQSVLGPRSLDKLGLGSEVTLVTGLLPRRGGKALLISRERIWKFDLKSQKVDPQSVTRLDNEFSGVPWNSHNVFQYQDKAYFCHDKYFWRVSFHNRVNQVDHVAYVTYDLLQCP
T1 sequence (P14780 20-707): as the sequence (P14780 20-707) above

| Binder | Efficacy, MMP3/MMP9 gelatin assay (rat proMMP9) [%] | IC50 (nM), MMP3/MMP9 gelatin assay (rat proMMP9) [nM] | Efficacy, MMP3/MMP9 gelatin assay [1] [%] | IC50 (nM), MMP3/MMP9 gelatin assay [1] [nM] | Efficacy, DQ-gelatin digestion, MMP3/MMP9 assay [2] [%] | IC50 (nM), DQ-gelatin digestion, MMP3/MMP9 assay [2] [nM] | Efficacy, DQ-gelatin digestion, MMP9 assay [3] [%] | IC50 (nM), DQ-gelatin digestion, MMP9 assay [3] [nM] | Efficacy, MMP3/MMP9 gelatin assay (mouse proMMP9) [%] | IC50 (nM), MMP3/MMP9 gelatin assay (mouse proMMP9) [nM] | Efficacy, MMP9 gelatin assay (mouse active MMP9) [%] | IC50 (nM), MMP9 gelatin assay (mouse active MMP9) [nM] | other results |
| --- | --- | --- | --- | --- | --- | --- | --- | --- | --- | --- | --- | --- | --- |
| F20-VH-GL1/B03-VL-GL1c (antibody, human IgG4, V domains shown) VH: EVQLVESGGGLVQPGRSLRLSCAASGFTFNDYPMHWVRQAPGKGLEWVSGISSNSGSVGYADSVKGRFTISRDNAKNSLYLQMNSLRAEDTALYYCARDKIYYGSGSYDFYYYYGMDVWGQGTTVTVSS VL: SSELTQDPAVSVALGQTVRITCQGDSLRSYYASWYQQKPGQAPVVVIYGKNNRPSGIPDRFSGSSSGNTVSLTITGAQAEDEADYYCQSRDNIGNHRVVLFGGGTKLTVL | 100 | 4.99 | 100 | 3.85 | 100 | 9.05 | 100 | 1.92 | 25 | 38.8 | 100 | 333 |  |
| F20-VH-GL1-V1-V9-V14/B08-VL-GL6c (antibody, human IgG4 S228P, V domains shown) VH: EVQLVESGGGLVQPGRSLRLSCAASGFTFNDYPMHWVRQAPGKGLEWVSGISSQSGSVGYAESVKGRFTISRDNAKNSLYLQMNSLRAEDTALYYCARDKIYYGSGSYDFYYYYGIDVWGQGTTVTVSS VL: QSALTQPASVSGSPGQSITISCTGTSNDVGAYNRVSWYQQHPGKAPKLMIYGVSNRPSGVSNRFSGSKSGNTASLTISGLQAEDEADFYCTSYSSSTTSYVVFGGGTKVTVL | 100 | 12.3 | 100 | 27.6 | 100 | 38.1 | 100 | 3.86 | 100 | 11.1 | 100 | 1.91 |  |
| F20-VH-GL1/B08-VL-GL6c (antibody, human IgG4, V domains shown) VH: EVQLVESGGGLVQPGRSLRLSCAASGFTFNDYPMHWVRQAPGKGLEWVSGISSNSGSVGYADSVKGRFTISRDNAKNSLYLQMNSLRAEDTALYYCARDKIYYGSGSYDFYYYYGMDVWGQGTTVTVSS VL: QSALTQPASVSGSPGQSITISCTGTSNDVGAYNRVSWYQQHPGKAPKLMIYGVSNRPSGVSNRFSGSKSGNTASLTISGLQAEDEADFYCTSYSSSTTSYVVFGGGTKVTVL | 100 | 17.4 | 100 | 29.9 | 100 | 44 | 100 | 3.92 | 100 | 7.91 | 100 | 0.86 |  |
| F20-VH-GL1-V4-V9-V14/B08-VL-GL6c (antibody, human IgG4 S228P, V domains shown) VH: EVQLVESGGGLVQPGRSLRLSCAASGFTFNDYPMHWVRQAPGKGLEWVSGISSRSGSVGYAESVKGRFTISRDNAKNSLYLQMNSLRAEDTALYYCARDKIYYGSGSYDFYYYYGIDVWGQGTTVTVSS VL: QSALTQPASVSGSPGQSITISCTGTSNDVGAYNRVSWYQQHPGKAPKLMIYGVSNRPSGVSNRFSGSKSGNTASLTISGLQAEDEADFYCTSYSSSTTSYVVFGGGTKVTVL | 100 | 6.19 | 100 | 10.8 | 100 | 20.4 | 100 | 2.92 | 100 | 12.7 | 100 | 2.37 |  |
| F20-VH-GL1-V4-V9/B08-VL-GL6c (antibody, human IgG4 S228P, V domains shown, The light chain constant region is not tied to it; also called F20-VH/B08-VLc variant; F20-VH/B08-VLc) VH: EVQLVESGGGLVQPGRSLRLSCAASGFTFNDYPMHWVRQAPGKGLEWVSGISSRSGSVGYAESVKGRFTISRDNAKNSLYLQMNSLRAEDTALYYCARDKIYYGSGSYDFYYYYGMDVWGQGTTVTVSS VL: QSALTQPASVSGSPGQSITISCTGTSNDVGAYNRVSWYQQHPGKAPKLMIYGVSNRPSGVSNRFSGSKSGNTASLTISGLQAEDEADFYCTSYSSSTTSYVVFGGGTKVTVL | 100 | 3.16 | 100 | 5.86 | 100 | 9.52 | 100 | 0.97 | 100 | 7.8 | 100 | 1.27 | Kd [4]: 11.7 nM; Kd [5]: > 15000 nM; efficacy of inhibition, MMP3/MMP9 assay with neutrophil-derived MMP9 [6]: 100%; efficacy of neutralisation, APMA-activated neutrophil-derived MMP9, OmniMMP RED cleavage [6]: 100%; IC50, DQ-gelatin digestion, MMP9 assay with highly purified activated MMP9 [7]: 2.6 nM; efficacy of inhibition, MMP3/MMP9 assay with neutrophil-derived MMP9 [8]: 100%; efficacy of neutralisation, APMA-activated neutrophil-derived MMP9, OmniMMP RED cleavage [8]: 100%; efficacy of inhibition, MMP3/MMP9 assay with neutrophil-derived MMP9 [9]: 100%; efficacy of neutralisation, APMA-activated neutrophil-derived MMP9, OmniMMP RED cleavage [9]: 100%; IC50 (read off the curve) [10]: ~10 nM; IC50 (read off the curve) [11]: ~10 nM; IC50 (read off the curve) [12]: ~0.5 nM; IC50 (read off the curve) [13]: ~2 nM; IC50 (read off the curve) [14]: ~2 nM |
| F20-VH-GL1-V4-V9-V14/B03-VL-GL1c (antibody, human IgG4 S228P, V domains shown) VH: EVQLVESGGGLVQPGRSLRLSCAASGFTFNDYPMHWVRQAPGKGLEWVSGISSRSGSVGYAESVKGRFTISRDNAKNSLYLQMNSLRAEDTALYYCARDKIYYGSGSYDFYYYYGIDVWGQGTTVTVSS VL: SSELTQDPAVSVALGQTVRITCQGDSLRSYYASWYQQKPGQAPVVVIYGKNNRPSGIPDRFSGSSSGNTVSLTITGAQAEDEADYYCQSRDNIGNHRVVLFGGGTKLTVL | 100 | 2.83 | 100 | 3.75 | 100 | 5.48 | 100 | 1.3 | 100 | 462 | 100 | 164 |  |
| F20-VH-GL1-V1-V9-V14/B03-VL-GL1c (antibody, human IgG4 S228P, V domains shown) VH: EVQLVESGGGLVQPGRSLRLSCAASGFTFNDYPMHWVRQAPGKGLEWVSGISSQSGSVGYAESVKGRFTISRDNAKNSLYLQMNSLRAEDTALYYCARDKIYYGSGSYDFYYYYGIDVWGQGTTVTVSS VL: SSELTQDPAVSVALGQTVRITCQGDSLRSYYASWYQQKPGQAPVVVIYGKNNRPSGIPDRFSGSSSGNTVSLTITGAQAEDEADYYCQSRDNIGNHRVVLFGGGTKLTVL | 100 | 8.82 | 100 | 12.5 | 100 | 15.2 | 100 | 3.16 |  | > 500 |  | > 500 |  |
| F20-VH-GL1-V1-V9/B08-VL-GL6c (antibody, human IgG4 S228P, V domains shown) VH: EVQLVESGGGLVQPGRSLRLSCAASGFTFNDYPMHWVRQAPGKGLEWVSGISSQSGSVGYAESVKGRFTISRDNAKNSLYLQMNSLRAEDTALYYCARDKIYYGSGSYDFYYYYGMDVWGQGTTVTVSS VL: QSALTQPASVSGSPGQSITISCTGTSNDVGAYNRVSWYQQHPGKAPKLMIYGVSNRPSGVSNRFSGSKSGNTASLTISGLQAEDEADFYCTSYSSSTTSYVVFGGGTKVTVL | 100 | 7.77 | 100 | 15.8 | 100 | 23.7 | 100 | 2.64 | 100 | 7.69 | 100 | 1.2 |  |

From patent US20170233495A1 (CALYPSO BIOTECH, published 2017)
